Laboratory results reported in article PMC7413259.

How the values were obtained:
Conditions in all cases: 5' triphosphate, B1: 50 mM Tris-HCl pH 8.0, 150 mM NaCl, 1 mM MgCl2, 2 mM beta-mercaptoethanol, 10% glycerol, 20 C, B2: same with 100 mM NaCl
[1] = molecular target: T1, ZIKV NS5 MTase domain WT (Zika virus) (UniProt A0A142I5B9); test: fluorescence anisotropy
[2] = molecular target: T1, ZIKV NS5 MTase domain WT (Zika virus); test: fluorescence titration
[3] = molecular target: T1, ZIKV NS5 MTase domain WT (Zika virus); test: fluorescence titration; remark: listed apart in the source
[4] = test system: ZIKV NS5 RdRp domain (Zika virus); test: fluorescence titration
ZIKV NS5 WT (Zika virus) = ZIKV NS5 WT (Zika virus) (UniProt A0A024B7W1); test: fluorescence titration

Substance: ZIKV SLA (SLA-F)
- Kd [1]: 310 nM
- Kd [2]: 400 nM
- Kd [3]: 590 nM
- Kd [4]: 530 nM
- Kd (ZIKV NS5 WT (Zika virus)): 280 nM
